Laboratory results published in the nanobody polyreactivity screen of Harvey et al. (2022).

Assay: yeast display, Sf9 membrane polyspecificity reagent, FACS + sequencing; frameworks hold sequencing errors
In short: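 Nanobodies came from a synthetic yeast display library in Saccharomyces cerevisiae BJ5465, induced with galactose for 36–48 hours and stained for 1 hour at 4 °C with 10% biotinylated, detergent-solubilized Sf9 membrane reagent. Cells were enriched on streptavidin microbeads and then FACS-sorted, with low and high (top ~1%) gates set on anti-HA fluorescence for expression and streptavidin fluorescence for reagent binding. Each polyreactivity label reflects the gate a clone came from. Genes were amplified by colony PCR, sequenced by MiSeq 2 × 250 and filtered by CDR length.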

Sequence: QVQLVESGGGLDQAGGSLRLSCAASGIILYRNGMGCYRQAPGKETELVAVISRRGGTYYADSVKGRFTISRDNAKNTVYLQVNSLKPEDTAVYYCAAYLSQKGNFRGGGDYWGQGTQVTVSS
- polyreactivity (PSR sort gate): high polyreactivity

Sequence: QVQLVESGGGLVLPGGRLRLSCAASGGTFSTYAIASYRQGPGKERELVAAISSRGTSTYYADSVKGRFTISRDNAKNSVYLQMNSLKPEDTAVYYCAAVGVKQFLGGNPFDYWGQGTQVTVSS
- polyreactivity (PSR sort gate): high polyreactivity

Sequence: QVQLVESGGGLVQAGGSLRLSCAASGFIFPWYTMGWYRQAPGKERELVAVINQSGGSTYYADSVKGRFTISRDNAKNPVYLQMNSLKPEDTAVDYCAAKSYYSWGQGTQVTVSS
- polyreactivity (PSR sort gate): high polyreactivity

Sequence: QVQLVESGGGLVQAGGSLRLSCAASGSTFRKYAMGWYSQAPGKERELVAAIRRNGVSTYYADSVKGRFTISLDNAKNTVYLQMNSLKPEDTAVYYCNARTKPDYDWGQGTQVTVSS
- polyreactivity (PSR sort gate): high polyreactivity

Sequence: QVQLVESGGGLVQAGGSLRLSCAASGRIFTVNAMGWYRQAPGKERELVAAISKSGGRTYYADSVKGRFTISRDNAKNTVYLQMNSLKPEDTAVYYCAKRVRTGSVGNFNYWGLGTQVTVSS
- polyreactivity (PSR sort gate): high polyreactivity

Sequence: QVQLVESGGGLVQAGGSLRLSCAASGRILHGYAMGWYRQAPGKERELVAAITSSGGRTYYADSVKGRFTISRDNAKNPVYLQMNSLKPEDTAVYYCAADRPAYRTGESKYDYWGQGTQVTVSS
- polyreactivity (PSR sort gate): low polyreactivity

Sequence: QVQLVESGGGLVQAGCSLRLSCAASGRTFGVYAMGWYRQAPGKERELVAGIRWRGGSTYYADSVKGRFTISRDNAKNTVYLQMNSLKPEDTAVYYCAADVYLVKYDYWGQGTQVTVSS
- polyreactivity (PSR sort gate): low polyreactivity

Sequence: QVQLVESGGGLVQAGGSLRLSCAASGFTFYGNAMGWYSQAPGKERELVAAISSGGSTNYADSVKGRFTISRDNAQNTVSLQMNSLKPEDTAVYYCAASSPRQVSFPYASIGFDYWGQGTQVTVSS
- polyreactivity (PSR sort gate): low polyreactivity

Sequence: QVQHVDSGGGLVQTGGSLLLSCAAYGRTFCVNDMGWYRQAAGKEREFVAAITWRGDSTYYADSVKGRFTISRDNAKNTVYLQMNSLKPEDSAVYYCNADVISLYDHPDYLYLFDYWGQGTQVTVSS
- polyreactivity (PSR sort gate): low polyreactivity

Sequence: QDQHVESVGGLVQAGGSLRLSCAASGSIIPLYAMGWYRQAPGKERELVAAISSRGGSTYYADSVKGRFSISRDNAKNTVYLQMKSLKPEDTAVYYCAVDTPSPSRGPRFNYWGQGTQVTVSS
- polyreactivity (PSR sort gate): high polyreactivity

Sequence: QVQLVESGGGLVQAGGSLRLSCAASGSIFPRYVMGWYRQAPGTARELVAAISGSGGSTYYADSVKGRFTISRDNAKNTVYLQMNSLKPEDTAVYYCNKLRRRVNRDIDDYWGQGTQVTVSS
- polyreactivity (PSR sort gate): high polyreactivity

Sequence: QVQLVESGGGLVQAGGSLRLSCAASGSTFEYYAMGWYRQAPGKERELVATITFGGGSTYYADSVKGRFTISRDNAKNTVYLQMNSLKPEDTAVYYCAADSGYLGIYGDEYSWGQGTQVTVSS
- polyreactivity (PSR sort gate): low polyreactivity

Sequence: QVQLVESGGGLVQAGGSLRLSCAASGRTFGLYAMGWYRQAPGKERELVAAISWGGGRTYYADSVKGRFTISRDNAKNTVYLLMNSLKPEDTAVYYCNALYATYYLGYDYWGQGTQVTVSS
- polyreactivity (PSR sort gate): high polyreactivity

Sequence: QVQLVESGGGLVQAGGSLRLSCAASGSTFTSYAMGWYRQAPGKERELVAAISKSGGSTYYADSVKGRFTISRDNAKNTVYLQMNSLKPEDTAVYYCAKYIAYYGYVPSPWDHPGDDYWGQGTQVTVSS
- polyreactivity (PSR sort gate): low polyreactivity

Sequence: QDQIVESGGGLVQAGGSLRLSCAASGSIIWGNALGWYSQAPGKERELVAAISWGGGRTYYADSVKGRFTLSRDNAKNTVYLQMNSLKPEDTAVYYCNTRYPYVVSTGYDYWGQGTQVTVSS
- polyreactivity (PSR sort gate): high polyreactivity

Sequence: QVQLVDSAAGLVQARRSLRLSCAASGRTFPLNVMGWYRLAPGKEREFVAAIRWNGGSTYYADSVKGRFTISRDHAKNTVYLQLNCLIPEDTSVYYCAAQLFRRGRYAGNPMDYWGQGTQVTVSS
- polyreactivity (PSR sort gate): high polyreactivity

Sequence: QVQLVESGGGLVQAGGSLRLSCAASGNTIIRYPMGWYRPAPGKERELVAAISYSGGRTYYADSVKGRFTISRDSAKNTVYLQMNRLKPEDSAVLYCNAASRYGGDYWGQGSQVTVSS
- polyreactivity (PSR sort gate): high polyreactivity

Sequence: QVQLVESGGCLVQAGGSLRLTCAASGFTFVYNAMGWYRQDPGKERELVARISVSGGSTYYADSVKGRFTISRDNAKNTVYLQMNSLKPEDTSVYYCAAELSAPQPDYQLKVDYYYWGQGTQVTVSS
- polyreactivity (PSR sort gate): low polyreactivity

Sequence: QVQLVESGGGLVQAGGSLRISCAASVSIFARYAMGWYRQAPGQERELVAAISSRGGSTYYADSVKGRFTISRDNAKNTVYLQMNSLKPEDTAVYYCNKGYLVRPGVYWGQGTQVTVSS
- polyreactivity (PSR sort gate): high polyreactivity

Sequence: QVQLVESGGGLVQAGGSLRLSCAASGFIFYEYDMGWYRQAPGKEGELVAAISVSGGSTYYADSVKGRFTISRDNAKNTVYLQMNSLKPEDTAVYYCAVFLPDYGRYDYWGQGTQVTVSS
- polyreactivity (PSR sort gate): low polyreactivity

Sequence: QVQLVESGGGLVQAGGSLRLSCAASGRIFATYAMGWSRQAPGKERELVAAISDGGGITYYADSVKGRFTISRDNAKNTVYLQMNSLKPDDTAVYYCARTYARYNFGYWGQGTQVTVSS
- polyreactivity (PSR sort gate): low polyreactivity

Sequence: QVQLVESGGGLVQAGGSLRLSCAASGSTFVYYAMGWYRQAPGTERELVAAITGSVDSTYYADSVKGRFTISRDNAKNPVYLQMNSLQPEDTAVYYCAADTYSTYWGQGTQVTVSS
- polyreactivity (PSR sort gate): low polyreactivity

Sequence: QVQLVESGGGLVQAGGSLRLSCAASGYIFVNYGMGWYRQAPGKERELVAVITNGGRTNYADSVKGRFTISRDNAKNTVYLQMNSLKPEDTAVYYCNARSFRQYYYWGQGTQVTVSS
- polyreactivity (PSR sort gate): high polyreactivity

Sequence: QVQLVESGGGLLQAGGSLRLISAASGGIFIRYAMGWYRQAPGKERALVAAITQSGAGTNYADSVKGRFTISRDNAKNTVYLQKYSLKPEDTAVYYCAKEALLPIRRLTHARTRYNFWGQGTQVTVSS
- polyreactivity (PSR sort gate): low polyreactivity

Sequence: QVQLVESGGGLVQAGGSLRLSCAASGSTFAYNTMGWYRQAPGKERELVAAISQRGGSTYADTVKGRFTISRDNAKNTVYLQMNSLKPEENAVYYWAADGYTYKFDYWGQGTQVTVSS
- polyreactivity (PSR sort gate): low polyreactivity

Sequence: QVQLVESGGGLVQAGGSLRLSCAASGRISYAYAMGRYRQAPGKERELVAAISGSGGSTYYADSVKWRFTISRDNAKNTVYFQMNTLKPEDTAVYYCAAGSGEYYGGKRYYWGQGTQVTVSS
- polyreactivity (PSR sort gate): low polyreactivity

Sequence: QVQLVESGGGLVQAGGSLRLSCAASGRTFIIYTMGWYRQAPGKEREFVAAITRSGGGTYYADSVKGRFTISRDNAKNTVYLQMNSLKPEDTAVYYFAADRFYDQAYDYWGQGTQVTVSS
- polyreactivity (PSR sort gate): low polyreactivity

Sequence: QVQLEDSGGGLVQAGGSLRLSCAASGSIIGSYAMGLYRQAPGKERELVAAISRRGGSTYYADSVKGRFTISRDNAKNTVYLQMNSLKPEDTAVYYCARRDYGVLNKGLGQEGDYWGQGTQVTVSS
- polyreactivity (PSR sort gate): low polyreactivity

Sequence: QVQLVESGGGLVQAGGSLRLSCSASGRIFSANAMGWYRQAPVKERELVATISTGGGRTYYADSVKGRFTISRDNAKNTVYLQMNSLKPEDTAVYYCNATRNYARVRYYYWGQGNQVTVSS
- polyreactivity (PSR sort gate): high polyreactivity

Sequence: QVQHVESGGGLVQAGGSLRLSCAASGSTFSYYAMGWSRQAPGKERELVAAISGSGASTYYADSVKGRFTISRDNAKNTVYLQMNSLKPEDTAVYYCAKYYVREHYDYWGQGTQVTVSS
- polyreactivity (PSR sort gate): low polyreactivity

Sequence: QVQLEESGGGLVQAGRSLRLSCAASGRTFNAYTMGWYRQAPGKERELVAAITSSGGNTYYADSVKGRFTISRDNVKNSVSLQINSLKPEDTAVYYCTTVYLYGTHDYWGQGTQVTLSS
- polyreactivity (PSR sort gate): low polyreactivity

Sequence: HVQLVEAGGGLVQAGGSLRVSCAASGFTIHYNAMGWYRQAPGKGWELVATISKSAGITSYADSVKGRFTISRDNATNTVYFPMNSLKPEDTAVYYCAADKSYRRVYYWGQGSQVTVSS
- polyreactivity (PSR sort gate): low polyreactivity
